# IntAct's records for PubMed 31515488
# B1: Vacuolar protein sorting-associated protein 37B (Homo sapiens), Q9H9H4 (parent)
# chain: MAGAGSEARFAGLSLVQLNELLEDEGQLTEMVQKMEETQNVQLNKEMTLASNRSLAEGNLLYQPQLDTLKARLTQKYQELQVLFEAYQIKKTKLDRQSSSASLETLLALLQAEGAKIEEDTENMAEKFLDGELPLDSFIDVYQSKRKLAHMRRVKIEKLQEMVLKGQRLPQALAPLPPRLPELAPTAPLPYPAPEASGPPAVAPRRIPPPPPPVPAGRLATPFTAAMSSGQAVPYPGLQCPPLPPRVGLPTQQGFSSQFVSPYPPPLPQRPPPRLPPHQPGFILQ
# partner: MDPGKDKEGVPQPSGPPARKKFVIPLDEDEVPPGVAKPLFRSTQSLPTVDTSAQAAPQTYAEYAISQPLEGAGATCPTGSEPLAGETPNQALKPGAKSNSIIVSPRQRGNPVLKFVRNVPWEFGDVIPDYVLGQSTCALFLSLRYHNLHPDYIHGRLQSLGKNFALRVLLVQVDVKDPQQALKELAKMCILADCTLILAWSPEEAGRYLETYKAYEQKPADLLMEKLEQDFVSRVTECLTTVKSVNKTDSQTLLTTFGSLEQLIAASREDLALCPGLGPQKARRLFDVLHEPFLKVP
# B2: Kinesin-like protein KIF20A (Homo sapiens), O95235 (parent)
# chain: MSQGILSPPAGLLSDDDVVVSPMFESTAADLGSVVRKNLLSDCSVVSTSLEDKQQVPSEDSMEKVKVYLRVRPLLPSELERQEDQGCVRIENVETLVLQAPKDSFALKSNERGIGQATHRFTFSQIFGPEVGQASFFNLTVKEMVKDVLKGQNWLIYTYGVTNSGKTHTIQGTIKDGGILPRSLALIFNSLQGQLHPTPDLKPLLSNEVIWLDSKQIRQEEMKKLSLLNGGLQEEELSTSLKRSVYIESRIGTSTSFDSGIAGLSSISQCTSSSQLDETSHRWAQPDTAPLPVPANIRFSIWISFFEIYNELLYDLLEPPSQQRKRQTLRLCEDQNGNPYVKDLNWIHVQDAEEAWKLLKVGRKNQSFASTHLNQNSSRSHSIFSIRILHLQGEGDIVPKISELSLCDLAGSERCKDQKSGERLKEAGNINTSLHTLGRCIAALRQNQQNRSKQNLVPFRDSKLTRVFQGFFTGRGRSCMIVNVNPCASTYDETLHVAKFSAIASQLVHAPPMQLGFPSLHSFIKEHSLQVSPSLEKGAKADTGLDDDIENEADISMYGKEELLQVVEAMKTLLLKERQEKLQLEMHLRDEICNEMVEQMQQREQWCSEHLDTQKELLEEMYEEKLNILKESLTSFYQEEIQERDEKIEELEALLQEARQQSVAHQQSGSELALRRSQRLAASASTQQLQEVKAKLQQCKAELNSTTEELHKYQKMLEPPPSAKPFTIDVDKKLEEGQKNIRLLRTELQKLGESLQSAERACCHSTGAGKLRQALTTCDDILIKQDQTLAELQNNMVLVKLDLRKKAACIAEQYHTVLKLQGQVSAKKRLGTNQENQQPNQQPPGKKPFLRNLLPRTPTCQSSTDCSPYARILRSRRSPLLKSGPFGKKY
# partner: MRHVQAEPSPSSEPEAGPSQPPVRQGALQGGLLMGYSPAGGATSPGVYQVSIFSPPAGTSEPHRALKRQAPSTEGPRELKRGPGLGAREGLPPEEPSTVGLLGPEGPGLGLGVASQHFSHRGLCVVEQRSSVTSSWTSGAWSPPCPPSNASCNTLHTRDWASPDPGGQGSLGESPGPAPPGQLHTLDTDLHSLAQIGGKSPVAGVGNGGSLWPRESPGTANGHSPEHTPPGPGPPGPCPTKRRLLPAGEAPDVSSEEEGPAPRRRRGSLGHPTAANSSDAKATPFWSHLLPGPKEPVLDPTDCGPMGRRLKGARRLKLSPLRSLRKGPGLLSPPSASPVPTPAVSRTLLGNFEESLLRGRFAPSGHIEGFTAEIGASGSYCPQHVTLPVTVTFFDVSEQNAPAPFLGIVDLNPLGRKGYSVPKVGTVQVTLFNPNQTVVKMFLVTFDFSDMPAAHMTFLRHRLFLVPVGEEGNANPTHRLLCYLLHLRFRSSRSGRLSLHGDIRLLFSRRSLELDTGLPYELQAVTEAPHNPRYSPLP
# B3: Dendritic cell nuclear protein 1 (Homo sapiens), Q8TF63 (parent)
# chain: MHYGAATHIQNSRSHGLETVPGHQRLERGAGGETPEFPGCHSPAPPENFGNELLPLSAPLQGLSEGLYPPGRNKTLPAGVLREGAVQFLHRGLCNSNLSSEASARPSGTQDELHSSRRKTGQTRREGARKHLVCSFRLYPFTVHTVSPGNSHLALYQVFKAVKLCPSETSFFLSRKSLKSSDPWHPPSLSPNSWNRQAGFRAWSSHLISLSLTCSDSQSRRVSSSQQPPLHSLSSHRRAAHVPE
# B4: Germ cell-less protein-like 1 (Homo sapiens), Q96IK5 (parent)
# chain: MGSLSSRVLRQPRPALAQQAQGARAGGSARRPDTGDDAAGHGFCYCAGSHKRKRSSGSFCYCHPDSETDEDEEEGDEQQRLLNTPRRKKLKSTSKYIYQTLFLNGENSDIKICALGEEWSLHKIYLCQSGYFSSMFSGSWKESSMNIIELEIPDQNIDVEALQVAFGSLYRDDVLIKPSRVVAILAAACLLQLDGLIQQCGETMKETVNVKTVCGYYTSAGTYGLDSVKKKCLEWLLNNLMTHQNVELFKELSINVMKQLIGSSNLFVMQVEMDIYTALKKWMFLQLVPSWNGSLKQLLTETDVWFSKQRKDFEGMAFLETEQGKPFVSVFRHLRLQYIISDLASARIIEQDAVVPSEWLSSVYKQQWFAMLRAEQDSEVGPQEINKEELEGNSMRCGRKLAKDGEYCWRWTGFNFGFDLLVTYTNRYIIFKRNTLNQPCSGSVSLQPRRSIAFRLRLASFDSSGKLICSRTTGYQILTLEKDQEQVVMNLDSRLLIFPLYICCNFLYISPEKKN
# partner: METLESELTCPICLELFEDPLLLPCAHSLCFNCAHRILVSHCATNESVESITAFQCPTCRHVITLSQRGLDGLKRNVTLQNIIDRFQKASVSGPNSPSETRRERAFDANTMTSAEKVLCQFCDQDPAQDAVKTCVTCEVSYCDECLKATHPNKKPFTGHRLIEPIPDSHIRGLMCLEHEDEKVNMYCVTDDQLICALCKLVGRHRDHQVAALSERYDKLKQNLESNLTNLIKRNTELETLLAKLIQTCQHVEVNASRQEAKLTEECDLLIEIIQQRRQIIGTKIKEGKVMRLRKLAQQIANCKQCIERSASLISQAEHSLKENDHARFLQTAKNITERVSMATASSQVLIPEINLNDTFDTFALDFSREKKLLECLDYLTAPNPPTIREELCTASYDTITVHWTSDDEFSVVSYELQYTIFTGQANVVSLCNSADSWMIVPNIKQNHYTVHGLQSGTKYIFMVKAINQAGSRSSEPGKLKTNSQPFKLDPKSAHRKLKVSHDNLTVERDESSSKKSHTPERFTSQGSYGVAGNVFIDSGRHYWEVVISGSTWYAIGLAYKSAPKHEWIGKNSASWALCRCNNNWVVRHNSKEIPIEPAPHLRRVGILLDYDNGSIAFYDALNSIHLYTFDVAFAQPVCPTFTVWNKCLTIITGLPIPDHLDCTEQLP
# Variants of: B1
# Conditions: with ercc1_human ERCC1, P07992
row,Variant,effect of a mutation on the interaction
1,M151I,with no effect

# Variants of: B2
# Conditions: with atosb_human ATOSB
row,Variant,effect of a mutation on the interaction
1,S44F,disrupting interaction strength

# Variants of: B3
# Conditions: with mdfi_human MDFI
row,Variant,effect of a mutation on the interaction
1,S135C,with no effect
2,P183T,with no effect

# Variants of: B4
# Conditions: with tri18_human MID1, O15344
row,Variant,effect of a mutation on the interaction
1,Y61S,with no effect
2,E77K,with no effect
